Test results published in patent US20260250410A1 (SICHUAN HUIYU PHARMACEUTICAL, published 2026).
Residue numbers refer to the chain shown, from its start.

Legend:
HuCDCP1-C = target: T1, HuCDCP1-C (human, UniProt Q9H5V8 30-667); test: SPR (Caterra or Biacore), antigen immobilized
T1 construct: range 30-667; expressed in HEK-293T, purified by Fc/his tag; also called human CDCP1-C; full-length extracellular domain of human CDCP1; not shown: Fc or his tag
T1 sequence (looked up): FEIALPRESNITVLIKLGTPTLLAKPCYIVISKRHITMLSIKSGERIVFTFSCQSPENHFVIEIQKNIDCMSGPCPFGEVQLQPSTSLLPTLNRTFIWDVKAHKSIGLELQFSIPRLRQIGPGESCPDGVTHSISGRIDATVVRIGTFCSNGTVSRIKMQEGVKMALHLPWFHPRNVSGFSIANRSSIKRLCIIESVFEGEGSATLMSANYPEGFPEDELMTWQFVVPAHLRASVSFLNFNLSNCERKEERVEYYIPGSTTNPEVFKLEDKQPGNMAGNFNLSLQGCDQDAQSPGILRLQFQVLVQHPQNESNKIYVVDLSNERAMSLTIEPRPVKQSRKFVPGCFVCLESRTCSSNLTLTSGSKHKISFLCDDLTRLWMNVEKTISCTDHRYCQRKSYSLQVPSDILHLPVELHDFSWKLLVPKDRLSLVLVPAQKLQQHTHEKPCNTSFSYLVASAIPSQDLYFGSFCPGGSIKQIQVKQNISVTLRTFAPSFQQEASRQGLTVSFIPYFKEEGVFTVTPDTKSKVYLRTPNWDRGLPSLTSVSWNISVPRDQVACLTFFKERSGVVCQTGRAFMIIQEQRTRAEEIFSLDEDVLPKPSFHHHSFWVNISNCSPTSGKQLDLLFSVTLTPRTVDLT

HuCDCP1-B = target: T2, HuCDCP1-B (human, UniProt Q9H5V8 343-667); test: SPR (Caterra), antigen immobilized
T2 construct: range 343-667; expressed in HEK-293T, purified by Fc/his tag; also called human CDCP1-B; membrane-proximal region of CDCP1; not shown: Fc or his tag
T2 sequence (looked up): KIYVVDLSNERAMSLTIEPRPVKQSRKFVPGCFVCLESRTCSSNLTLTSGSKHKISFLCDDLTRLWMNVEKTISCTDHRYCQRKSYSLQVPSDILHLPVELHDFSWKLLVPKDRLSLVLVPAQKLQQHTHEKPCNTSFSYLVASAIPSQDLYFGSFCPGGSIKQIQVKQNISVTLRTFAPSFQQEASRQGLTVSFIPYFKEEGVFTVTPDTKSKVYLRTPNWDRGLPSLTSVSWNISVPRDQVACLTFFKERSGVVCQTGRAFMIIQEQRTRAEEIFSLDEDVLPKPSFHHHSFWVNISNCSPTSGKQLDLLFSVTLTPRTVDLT
Procedure: (§1) The humanized anti-CDCP1 antibodies obtained from Example 11 were subjected to gene cloning, constructed into pTT5 expression vector for a small amount of expression in CHO cells (Expi-CHOS: Gibco A29127), and purified with an Fc affinity column (AT Protein A Diamond Plus. No. AA402312). Antibody purity was analyzed by HPLC and determined by Nanodrop. High-throughput affinity assay was carried out for a small amount of antibodies by Caterra.
(§2) Further, Partial anti-CDCP1 humanized antibodies were selected for expression, and then the affinity of the antibodies to the antigens Hu-CDCP1-A, Hu-CDCP1-B, Cyno-CDCP1, and Ms-CDCP1 was detected according to the above affinity detection method.

CynoCDCP1 = target: T3, CynoCDCP1 (Macaca fascicularis, UniProt A0A2K5VLA8 30-667); test: SPR (Caterra), antigen immobilized
T3 construct: extracellular domain; also called Macaca fascicularis CDCP1; monkey CDCP1; not shown: Fc or his tag
T3 sequence: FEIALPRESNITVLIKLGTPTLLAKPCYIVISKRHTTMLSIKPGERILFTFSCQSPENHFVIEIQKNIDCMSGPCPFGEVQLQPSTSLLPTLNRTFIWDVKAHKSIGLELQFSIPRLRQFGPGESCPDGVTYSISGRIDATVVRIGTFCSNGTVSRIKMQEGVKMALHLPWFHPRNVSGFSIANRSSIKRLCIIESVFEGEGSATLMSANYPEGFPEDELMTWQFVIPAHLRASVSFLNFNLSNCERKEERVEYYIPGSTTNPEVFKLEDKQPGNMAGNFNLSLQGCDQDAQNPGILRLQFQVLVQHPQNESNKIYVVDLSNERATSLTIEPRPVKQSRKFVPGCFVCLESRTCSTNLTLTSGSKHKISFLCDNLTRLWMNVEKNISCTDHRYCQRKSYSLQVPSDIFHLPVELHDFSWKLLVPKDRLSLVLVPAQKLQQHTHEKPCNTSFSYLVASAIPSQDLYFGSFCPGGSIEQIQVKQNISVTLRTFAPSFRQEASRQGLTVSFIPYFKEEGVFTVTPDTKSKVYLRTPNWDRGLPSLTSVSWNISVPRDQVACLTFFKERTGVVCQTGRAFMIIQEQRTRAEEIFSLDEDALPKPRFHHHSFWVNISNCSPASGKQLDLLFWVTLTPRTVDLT
Procedure: as §1, §2

MsCDCP1 = target: T4, MsCDCP1 (mouse, UniProt Q5U462 30-666); test: SPR (Caterra), antigen immobilized
T4 construct: extracellular domain; also called mouse CDCP1; not shown: Fc or his tag
T4 sequence (looked up): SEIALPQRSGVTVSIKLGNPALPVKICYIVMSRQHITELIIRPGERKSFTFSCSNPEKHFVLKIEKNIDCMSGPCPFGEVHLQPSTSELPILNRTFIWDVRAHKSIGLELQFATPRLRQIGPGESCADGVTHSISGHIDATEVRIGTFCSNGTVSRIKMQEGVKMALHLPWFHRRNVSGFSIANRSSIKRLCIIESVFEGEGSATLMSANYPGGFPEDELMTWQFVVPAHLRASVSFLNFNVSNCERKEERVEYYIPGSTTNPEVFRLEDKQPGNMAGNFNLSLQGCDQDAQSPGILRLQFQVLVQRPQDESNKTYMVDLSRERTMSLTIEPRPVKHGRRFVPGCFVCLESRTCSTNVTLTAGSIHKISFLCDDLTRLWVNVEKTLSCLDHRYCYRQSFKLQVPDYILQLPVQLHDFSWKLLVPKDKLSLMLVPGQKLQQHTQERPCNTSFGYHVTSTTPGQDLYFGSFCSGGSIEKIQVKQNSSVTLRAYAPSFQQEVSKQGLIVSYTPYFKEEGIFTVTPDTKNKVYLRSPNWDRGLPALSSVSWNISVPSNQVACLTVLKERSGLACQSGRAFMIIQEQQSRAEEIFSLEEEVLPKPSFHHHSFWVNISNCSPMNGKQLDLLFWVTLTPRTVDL
Procedure: as §1, §2

B1: 8E5 (antibody, V domains shown)
VH: EVQLKESGPELKKPGETVKISCKASGYTLTDFSMHWLKQAPGKGLKWMGWINTETGAPTYADDFKGRFALSLDTSANTAYLQINNLKNEDTATYFCSRGRDYDPHFDYWGQGTTVTVSS
VL: EIVLTQSPATLSVTPGDRVSLSCRASQSISDFLHWYQQRSHESPRLLIKYASQSISGIPSRFGGSGSGSDFTLNINTVEPEDVGMYYCQSAHSFPYTFGGGTKLEIK
notes: murine hybridoma mAb; also called 8ES
EC50 (HuCDCP1-C): 0.105 nM

B2: 5B8 (antibody, V domains shown)
VH: EVQLKESGGGLVQPGGSLRISCATSGLTFTHYHMSWVRQPPGKAPEWLAIIRNKAYGYTTDYSASVRGRFTISRDDSQSILYLQMNTLRAEDSATYYCVREGGYGYDGTFAYWGQGTTVTVSS
VL: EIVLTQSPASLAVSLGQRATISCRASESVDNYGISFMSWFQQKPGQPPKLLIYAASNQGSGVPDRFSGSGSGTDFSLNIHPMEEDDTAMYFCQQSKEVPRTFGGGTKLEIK
notes: murine hybridoma mAb
EC50 (HuCDCP1-C): 1.19 nM

B3: 8C9 (antibody, V domains shown)
VH: B2 VH with A90P
VL: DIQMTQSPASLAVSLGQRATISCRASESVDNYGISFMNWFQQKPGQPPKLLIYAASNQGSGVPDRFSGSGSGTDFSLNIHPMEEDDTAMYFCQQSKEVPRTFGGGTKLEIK
notes: murine hybridoma mAb
EC50 (HuCDCP1-C): 1.72 nM

B4: 12E6 (antibody, V domains shown)
VH: EVQLKESGPGILQPSQTLSLTCSFSGFSLSTSGMGVGWIRQPSGKGLEWLAHIWWDDVKLYNPALKSRLTISKETSNNQVFLKIASVDAADTATYYCARIDHGYGSNYWDFDVWGAGTTVTVSS
VL: DIVMTQAAPSVPVTPGGSVSISCRSTKSLLHSDGKTYLYWFLQRPGQSPQLLIYRMSNLASGVPDRFSGSGSGTAFTLRISRVEAEDVGVYYCMQHLEYPFTFGSGTKLEIK
notes: murine hybridoma mAb
EC50 (HuCDCP1-C): 0.0634 nM

B5: 6A7 (antibody, V domains shown)
VH: EVQLKESGAELVRPGASVKVSCKASGYSFTSYWMNWVKQRPGQGLEWIGMIHPSDSETKLNQKFRDRASLTVDKSSSTAYMQLSSPTSEDSAVYYCTINYESFYYAMDYWGQGTTVTVSS
VL: DIVMTQSPASLAVSLGQRATISCRASKSVSTSGYSYMHWYQQKPGQPPKLLLYLASNLESGVPARFSGSGSGADFTLNIHPVEEEDAATYYCLHSRELPYTFGGGTKLEIK
notes: murine hybridoma mAb
EC50 (HuCDCP1-C): 9.65 nM

B6: 10D2 (antibody, V domains shown)
VH: EVQLQQSGPELKKPGETVKISCKASGYTFTDYSMHWVKQAPGKGLKWMGWINTETGQPTYADDFKGRFAFSLETSASSAYLQINNLKNEDTATYFCTRTFYYDYVGDYWGQGTTVTVSS
VL: DIVMTQSHKFMSTSVGDRVSITCKASQDVSTAVAWYRQKPGQSPKLLIYWASTRHTGVPDRLTGSGSGTDFALTINSVQAEDLALYYCQQHSSTPYTFGGGTKLEIK
notes: murine hybridoma mAb
EC50 (HuCDCP1-C): 0.705 nM

B7: 1CP-117 (antibody, human IgG1, kappa, V domains shown)
VH: QVQLVQSGSELKKPGASVKVSCKASGYTLTDFSMHWVRQAPGQGLEWMGWINTETGAPTYADDFKGRFVLSLDTSVSTAYLQISSLKAEDTAVYYCSRGRDYDPHFDYWGQGTLVTVSS
VL: EIVLTQSPATLSLSPGERATLSCRASQSISDFLHWYQQKPGQSPRLLIKYASQSISGIPARFSGSGSGSDFTLTISSVEPEDFAVYYCQSAHSFPYTFGQGTKLEIKR
notes: humanized 8E5, human IgG1 kappa
Kd (HuCDCP1-B): 182 nM | Kd (CynoCDCP1): 1.84 nM | Kd (MsCDCP1): 212 nM

B8: 1CP-121 (antibody, human IgG1, kappa, V domains shown)
VH: B7 VH
VL: B7 VL with P40S
notes: as for B7
Kd (HuCDCP1-B): 131 nM | Kd (CynoCDCP1): 1.51 nM | Kd (MsCDCP1): 141 nM

B9: G10F6 (antibody, V domains shown)
VH: EVKLVESGPGILQPSQTLSLTCSFSGFSLSTSGMGVSWVRQPSGKGLEWLAHIYWDDDKRYNPSLKGRLTISKDTPRNQVFLEITSVDTTDTATYYCARVPGNWDEDAMDYWGQGTTVTVSS
VL: DIQMTQSPLSLPVSLGDQASISCRSSQNIVHTNGNTYLEWYLQKVGQSPKLLIYKVSNRFSGVPDRFSGSGSGTDFTLKISRVEAEDLGVYYCFQGSHVPYTFGGGTKLEIK
notes: murine hybridoma mAb
EC50 (HuCDCP1-C): 5.63 nM

B10: 14A10C5 (antibody, V domains shown)
VH: EVKLVESGPGILQPSQTLSLTCSFSGFSLSTSGMGVSWIRQPSGKGLEWLAHIYWDDEKRYNPSLKSRLTISKDTSSNQVFLKITSVDTADTATYYCAREGSANWEAMDYWGQGTTVTVSS
VL: B9 VL with Q3V, S7A, P8A, H31Y, N35I, V45P, G73A, G96S, Y101W
notes: murine hybridoma mAb; also called 14A10CS
EC50 (HuCDCP1-C): 2.02 nM

B11: 3F1A11 (antibody, V domains shown)
VH: EVKLVESGPGLVKPSQSLSLTCTVTGYSITSDYAWNWIRQFPGNKLEWMGYISYNTYTSYNPSLKSRISVTRDTSKNQFFLQLKSVTIEDTATYFCAGGDYYGTGAVDYWGQGTTVTVSS
VL: EIVLTQSPLSLPVSLGDQASISCRSRQTLVHTNGNTYLDWYLQKPGQSPKLLIYKVSIRFSGVPDRFSGSRSGTDFTLKISRVEAEDLGIYYCFQGSHVPWTFGGGTKLEIK
notes: murine hybridoma mAb
EC50 (HuCDCP1-C): 37.9 nM

B12: 3C11 (antibody, V domains shown)
VH: EVQLQQSGTVLARPGASVKMSCKASGYNFISYWLHWIKQRPGQGLEWIGGIYPGNTDTTYNQKFKGKAKVTAVTSATTAYMELSSLTNEDSAVYYCIRYDYDRGMDYWGQGTTVTVSS
VL: DIQMTQSPSSFSVSLGDRVTITCRASEDIYYRLAWYQQKPGNAPRLLISGATALETGVPSRFSGSGSGKDYTLSITSLQTEDVATYYCQHYWNIPWTFGGGTKLEIK
notes: murine hybridoma mAb
EC50 (HuCDCP1-C): 3.96 nM

B13: 3B12H5 (antibody, V domains shown)
VH: EVQLQQSGTVLARPGASVKMSCKASGYSFTIYWVHWVKQRPGQGLEWIGAVYPGNDDTSYNQNFKGKAKLTAVTSATTAYMELSSLTIDDSAVYYCTRHTYDEVFDYWGQGTTVTVSS
VL: B12 VL with Q3V, F11L, R24K, A51G, A53N, T56A, V58I, T85I, I94T
notes: murine hybridoma mAb; also called 3B12HS
EC50 (HuCDCP1-C): 0.723 nM
